Reference: publication PMC4809050 (2016)

Tests used:
Experiment in all cases: NMR chemical shift titration
[1] = molecular target: T1, PSGL-1 N-terminus peptide 2-15 (Homo sapiens, UniProt Q14242)
T1 chain: PLQLLLLLILLGPG

[2] = molecular target: T2, CCR7 N-terminus peptide 1-30 (Homo sapiens, UniProt P32248)
T2 chain: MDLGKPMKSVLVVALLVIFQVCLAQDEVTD

[3] = molecular target: T3, CCR7 N-terminus peptide 2-30 (Homo sapiens, UniProt P32248)
T3 chain: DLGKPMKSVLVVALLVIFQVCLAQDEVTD

[4] = molecular target: PSGL-1 N-terminus peptide 1-15 (Homo sapiens, UniProt Q14242, N-terminal pyroglutamate)

B1: CCL19 (protein)
chain: GTNDAEDCCLSVTQKPIPGYIVRNFHYLLIKDGCRVPAVVFTTLRGRQLCAPPDQPWVERIIQRLQRTSAKMKRRSS
A Kd [1] of 18 µM, a Kd [2] of 52 µM and a Kd [3] of 12 µM were found for B1 in this work. It also gave a Kd [4] of 20 µM.
